Patent publication US6713276

Target: APP751sw (751 form of APP carrying the Swedish mutation), P05067
Sequence (P05067 whole entry, looked up, change not shown): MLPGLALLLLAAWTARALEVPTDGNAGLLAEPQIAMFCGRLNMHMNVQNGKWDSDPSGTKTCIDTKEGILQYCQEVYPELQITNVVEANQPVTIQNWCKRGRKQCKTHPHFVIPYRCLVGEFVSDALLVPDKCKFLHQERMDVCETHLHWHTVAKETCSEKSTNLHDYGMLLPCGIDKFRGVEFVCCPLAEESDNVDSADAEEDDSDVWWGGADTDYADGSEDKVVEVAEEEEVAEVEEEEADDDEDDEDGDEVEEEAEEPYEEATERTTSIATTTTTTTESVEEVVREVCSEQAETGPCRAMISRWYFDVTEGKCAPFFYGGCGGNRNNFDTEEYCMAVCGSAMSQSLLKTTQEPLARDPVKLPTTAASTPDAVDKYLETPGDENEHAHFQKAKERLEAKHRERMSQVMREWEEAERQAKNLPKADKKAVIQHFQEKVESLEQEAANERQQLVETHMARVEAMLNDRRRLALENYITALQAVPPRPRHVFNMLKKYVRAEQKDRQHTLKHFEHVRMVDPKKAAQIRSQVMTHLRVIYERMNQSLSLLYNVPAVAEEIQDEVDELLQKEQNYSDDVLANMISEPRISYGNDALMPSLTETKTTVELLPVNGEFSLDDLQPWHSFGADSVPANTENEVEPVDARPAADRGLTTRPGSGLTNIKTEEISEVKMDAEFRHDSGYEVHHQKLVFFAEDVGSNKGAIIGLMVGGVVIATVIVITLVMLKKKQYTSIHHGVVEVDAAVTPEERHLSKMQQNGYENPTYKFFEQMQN

B1: BACE2 D110A (protein)
chain: ALEPALASPAGAANFLAMVDNLQGDSGRGYYLEMLIGTPPQKLQILVATGSSNFAVAGTPHSYIDTYFDTERSSTYRSKGFDVTVKYTQGSWTGFVGEDLVTIPKGFNTSFLVNIATIFESENFFLPGIKWNGILGLAYATLAKPSSSLETFFDSLVTQANIPNVFSMQMCGAGLPVAGSGTNGGSLVLGGIEPSLYKGDIWYTPIKEEWYYQIEILKLEIGGQSLNLDCREYNADKAIVDSGTTLLRLPQKVFDAVVEAVARASLIPEFSDGFWTGSQLACWTNSETPWSYFPKISIYLRDENSSRSFRITILPQLYIQPMMGAGLNYECYRFGISPSTNALVIGATVMEGFYVIFDRAQKRVGFAASPCAEIAGAAVSEISGPFSTEDVASNCVPAQSLSEPILWIVSYALMSVCGAILLVLIVLLLLPFRCQRRPRDPEVVNDESSLVRHRWK
β-NTF formation, Q-HP Sepharose fractions of membrane extracts reconstituted with APP751sw for 2 hours at 37° C.: extracts derived from BACE2 D110A transfected cells lost their ability to cleave at the β-secretase site in vitro
